Assay results reported in IntAct's records for PubMed 21370995.

Molecular target: kcru_mouse Ckmt1 (UniProt P30275)

Leucine-rich repeat serine/threonine-protein kinase 2 (Homo sapiens), Q5S007 G2019S
effect of a mutation on the interaction: increasing interaction
